Measured values as given in the supplement of paper PMC9112550, “Optimization of the antimicrobial peptide Bac7 by deep mutational scanning” (BMC Biology, 2022).

System: Escherichia coli TOP10
Test: shrunken log2 fold change of peptide-encoding DNA abundance (4.5 h post-induction vs induction); higher = less antimicrobial activity (less host growth inhibition)
Conditions: time post-induction: 4.5 h; library: site-saturation at positions 5, 18, 19, 20
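Further: peptides expressed intracellularly from a pBAD plasmid library in pooled LB shake-flask culture, induced with 0.3% L-arabinose, DNA abundance read by NGS, three biological replicates, DESeq2 with apeglm shrinkage.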

RRIRNRPPRLPRPRPRPPHSPRP
shrunken log2 fold change: 0.183

RRIRIRPPRLPRPRPRPDSFPRP
shrunken log2 fold change: 0.0771

RRIRRRPPRLPRPRPRPEQKPRP
shrunken log2 fold change: 0.0588

RRIRSRPPRLPRPRPRPHMHPRP
shrunken log2 fold change: -0.202

RRIRRRPPRLPRPRPRPEQRPRP
shrunken log2 fold change: 0.272

RRIRCRPPRLPRPRPRPHKWPRP
shrunken log2 fold change: -0.174

RRIRVRPPRLPRPRPRPWLHPRP
shrunken log2 fold change: 0.215

RRIRVRPPRLPRPRPRPVYIPRP
shrunken log2 fold change: -0.363

RRIRNRPPRLPRPRPRPKVYPRP
shrunken log2 fold change: -0.406

RRIRFRPPRLPRPRPRPRMAPRP
shrunken log2 fold change: 0.375

RRIRTRPPRLPRPRPRPYWPPRP
shrunken log2 fold change: -0.424

RRIRVRPPRLPRPRPRPDDPPRP
shrunken log2 fold change: 0.359

RRIRDRPPRLPRPRPRPVGVPRP
shrunken log2 fold change: 0.189

RRIRTRPPRLPRPRPRPCCSPRP
shrunken log2 fold change: 0.123

RRIRMRPPRLPRPRPRPINAPRP
shrunken log2 fold change: -0.0931

RRIRYRPPRLPRPRPRPYFGPRP
shrunken log2 fold change: 0.0143

RRIRARPPRLPRPRPRPTDNPRP
shrunken log2 fold change: 0.152

RRIRTRPPRLPRPRPRPVPMPRP
shrunken log2 fold change: -0.299

RRIRTRPPRLPRPRPRPHFCPRP
shrunken log2 fold change: 0.0392

RRIRVRPPRLPRPRPRPYAHPRP
shrunken log2 fold change: -0.38

RRIRYRPPRLPRPRPRPWTDPRP
shrunken log2 fold change: -0.038

RRIRSRPPRLPRPRPRPCRGPRP
shrunken log2 fold change: -0.128

RRIRNRPPRLPRPRPRPTSQPRP
shrunken log2 fold change: 0.187

RRIRQRPPRLPRPRPRPWTNPRP
shrunken log2 fold change: -0.00183

RRIRKRPPRLPRPRPRPYTIPRP
shrunken log2 fold change: -0.0634

RRIRPRPPRLPRPRPRPYMAPRP
shrunken log2 fold change: -1.07

RRIRDRPPRLPRPRPRPMHKPRP
shrunken log2 fold change: 0.0101

RRIRHRPPRLPRPRPRPRCIPRP
shrunken log2 fold change: -0.0991

RRIRIRPPRLPRPRPRPEELPRP
shrunken log2 fold change: -0.0241

RRIRIRPPRLPRPRPRPFMPPRP
shrunken log2 fold change: -0.821

RRIRFRPPRLPRPRPRPNWAPRP
shrunken log2 fold change: 0.00252

RRIRMRPPRLPRPRPRPCMCPRP
shrunken log2 fold change: -0.317

RRIRARPPRLPRPRPRPYKYPRP
shrunken log2 fold change: -0.227

RRIRYRPPRLPRPRPRPMYMPRP
shrunken log2 fold change: -2.38

RRIRGRPPRLPRPRPRPWDKPRP
shrunken log2 fold change: 0.067

RRIRRRPPRLPRPRPRPGFTPRP
shrunken log2 fold change: 0.00987

RRIRERPPRLPRPRPRPCKCPRP
shrunken log2 fold change: -0.01

RRIRWRPPRLPRPRPRPKWNPRP
shrunken log2 fold change: -0.095

RRIRMRPPRLPRPRPRPAPMPRP
shrunken log2 fold change: 0.953

RRIRYRPPRLPRPRPRPMNWPRP
shrunken log2 fold change: -0.463

RRIRKRPPRLPRPRPRPWCAPRP
shrunken log2 fold change: 0.113

RRIRCRPPRLPRPRPRPERTPRP
shrunken log2 fold change: 0.766

RRIRERPPRLPRPRPRPPRRPRP
shrunken log2 fold change: 0.408

RRIRNRPPRLPRPRPRPITAPRP
shrunken log2 fold change: -0.132

RRIRLRPPRLPRPRPRPQMNPRP
shrunken log2 fold change: -0.507

RRIRGRPPRLPRPRPRPFIEPRP
shrunken log2 fold change: 0.364

RRIRKRPPRLPRPRPRPGGEPRP
shrunken log2 fold change: 0.753

RRIRLRPPRLPRPRPRPAGQPRP
shrunken log2 fold change: -0.0451

RRIRERPPRLPRPRPRPFPLPRP
shrunken log2 fold change: -0.134

RRIRKRPPRLPRPRPRPIWRPRP
shrunken log2 fold change: 0.132

RRIRPRPPRLPRPRPRPQGEPRP
shrunken log2 fold change: 0.208

RRIRARPPRLPRPRPRPCPSPRP
shrunken log2 fold change: 0.0639

RRIRKRPPRLPRPRPRPVIAPRP
shrunken log2 fold change: 0.437

RRIRDRPPRLPRPRPRPKYHPRP
shrunken log2 fold change: -0.412

RRIRPRPPRLPRPRPRPKVAPRP
shrunken log2 fold change: 0.02

RRIRMRPPRLPRPRPRPLPTPRP
shrunken log2 fold change: 1.36

RRIRARPPRLPRPRPRPYCHPRP
shrunken log2 fold change: -0.381

RRIRVRPPRLPRPRPRPQVIPRP
shrunken log2 fold change: -0.00246

RRIRFRPPRLPRPRPRPKFEPRP
shrunken log2 fold change: -0.081

RRIRCRPPRLPRPRPRPANKPRP
shrunken log2 fold change: 0.361

RRIRGRPPRLPRPRPRPAKGPRP
shrunken log2 fold change: 0.0624

RRIRCRPPRLPRPRPRPLHPPRP
shrunken log2 fold change: 0.199

RRIRERPPRLPRPRPRPLFGPRP
shrunken log2 fold change: -0.0794

RRIRPRPPRLPRPRPRPNKSPRP
shrunken log2 fold change: 0.408

RRIRPRPPRLPRPRPRPYGCPRP
shrunken log2 fold change: -0.0896

RRIRWRPPRLPRPRPRPNCFPRP
shrunken log2 fold change: -0.0571

RRIRLRPPRLPRPRPRPDFFPRP
shrunken log2 fold change: 0.0131

RRIRRRPPRLPRPRPRPASYPRP
shrunken log2 fold change: -0.111

RRIRFRPPRLPRPRPRPRSDPRP
shrunken log2 fold change: 0.193

RRIRRRPPRLPRPRPRPTHQPRP
shrunken log2 fold change: 0.414

RRIRNRPPRLPRPRPRPFKKPRP
shrunken log2 fold change: -0.263

RRIRFRPPRLPRPRPRPQAEPRP
shrunken log2 fold change: -0.263

RRIRQRPPRLPRPRPRPYSAPRP
shrunken log2 fold change: -0.00273

RRIRFRPPRLPRPRPRPMQYPRP
shrunken log2 fold change: -0.683

RRIRWRPPRLPRPRPRPQTQPRP
shrunken log2 fold change: 0.516

RRIRLRPPRLPRPRPRPPWLPRP
shrunken log2 fold change: 0.439

RRIRARPPRLPRPRPRPRNWPRP
shrunken log2 fold change: 0.388

RRIRARPPRLPRPRPRPSIRPRP
shrunken log2 fold change: -0.0712

RRIRFRPPRLPRPRPRPSELPRP
shrunken log2 fold change: -0.0817

RRIRERPPRLPRPRPRPQVVPRP
shrunken log2 fold change: -0.42

RRIRSRPPRLPRPRPRPARMPRP
shrunken log2 fold change: -0.0672

RRIRPRPPRLPRPRPRPCRRPRP
shrunken log2 fold change: 0.117

RRIRCRPPRLPRPRPRPHRKPRP
shrunken log2 fold change: -0.0176

RRIRLRPPRLPRPRPRPTKWPRP
shrunken log2 fold change: -0.0762

RRIRWRPPRLPRPRPRPQHNPRP
shrunken log2 fold change: -0.537

RRIRLRPPRLPRPRPRPVRMPRP
shrunken log2 fold change: 0.494

RRIRPRPPRLPRPRPRPNYWPRP
shrunken log2 fold change: -0.234

RRIRPRPPRLPRPRPRPKQYPRP
shrunken log2 fold change: -0.29

RRIRHRPPRLPRPRPRPTNKPRP
shrunken log2 fold change: -0.557

RRIRDRPPRLPRPRPRPRIQPRP
shrunken log2 fold change: -0.0934

RRIRKRPPRLPRPRPRPAERPRP
shrunken log2 fold change: 0.123
